Reference: patent US20060058231A1 (Xencor, published 2006)

What was measured:
[1] = target: T1, anti-BMP-7 antibodies of the commercial ELISA (R&D Systems ELISA Duoset Cat#DY354); assay: sandwich ELISA (R&D Systems BMP7 ELISA Cat#DY354), BMP-7 protein titrated, % ELISA signal; the EC50 column carries no unit, the concentration axis is in ug/mL
T1 construct: also called antibody; ELISA antibody

[2] = target: T2, noggin Fc fusion (R&D Systems) (UniProt Q13253 28-232, limits assumed); assay: AlphaScreen competition against biotinylated Y65N/S120D BMP-7
T2 construct: Bought noggin/Fc fusion; not shown: Fc part of the bought fusion
T2 sequence (looked up): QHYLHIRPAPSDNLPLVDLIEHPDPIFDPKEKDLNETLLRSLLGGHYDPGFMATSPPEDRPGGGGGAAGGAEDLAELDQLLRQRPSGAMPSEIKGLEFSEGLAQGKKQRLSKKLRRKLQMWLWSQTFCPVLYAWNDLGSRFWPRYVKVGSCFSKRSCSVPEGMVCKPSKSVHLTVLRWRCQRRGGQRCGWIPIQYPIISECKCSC
Procedure: (§1) The Y65N/S120D variant of BMP-7 was also biotinylated for use in AlphaScreen assays using NHS-biotin. Bioactivity of the biotinylated protein was confirmed. AlphaScreen assays were performed to determine the binding affinity of selected BMP-7 variants for Fc fusions of the receptors BMPRIa, BMPRIb, ActRIIa, and BMPRII and the inhibitor noggin (R&D Systems). AlphaScreen assays were also performed to determine the affinity of selected variants for an anti-BMP-7 monoclonal antibody (R&D Systems mAb 3541). In all cases, 12-point binding curves were obtained in triplicate. Each data point corresponds to the luminescence produced from a solution comprising 10 uL of serially diluted BMP-7 variant, 10 uL receptor, inhibitor, or antibody, 10 uL biotinylated BMP-7, 10 uL AlphaScreen™ acceptor beads, and 10 uL AlphaScreen™ donor beads. Prism was used to calculate EC50 values for selected experiments.

[3] = target: T3, ActRIIa Fc fusion (R&D Systems) (UniProt P27037 20-134, limits assumed); assay: as above
T3 construct: Bought receptor/Fc fusion; not shown: Fc part of the bought fusion
T3 sequence (P27037 20-134 limits assumed): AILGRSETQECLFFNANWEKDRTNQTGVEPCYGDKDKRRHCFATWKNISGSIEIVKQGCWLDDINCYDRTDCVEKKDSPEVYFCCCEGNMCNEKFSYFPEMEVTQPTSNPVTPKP
Procedure: as §1

[4] = target: T4, BMPRIb Fc fusion (R&D Systems) (UniProt O00238 14-126); assay: as above
T4 construct: Bought receptor/Fc fusion; also called ALK-6; not shown: Fc part of the bought fusion
T4 sequence (looked up): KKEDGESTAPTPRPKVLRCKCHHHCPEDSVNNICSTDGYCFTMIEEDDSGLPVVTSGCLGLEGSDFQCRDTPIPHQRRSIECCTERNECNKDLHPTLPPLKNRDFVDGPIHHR
Procedure: as §1

[5] = target: T5, BMPRII Fc fusion (R&D Systems) (UniProt Q13873 27-151, limits assumed); assay: as above
T5 construct: Bought receptor/Fc fusion; not shown: Fc part of the bought fusion
T5 sequence (looked up): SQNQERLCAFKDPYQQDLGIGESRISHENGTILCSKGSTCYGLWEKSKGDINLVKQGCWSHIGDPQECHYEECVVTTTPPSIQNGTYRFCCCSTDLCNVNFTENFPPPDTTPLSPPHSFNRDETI
Procedure: as §1

[6] = target: T2, noggin Fc fusion (R&D Systems); assay: AlphaScreen competition; EC50 relative to wild type BMP-7 (R&D Systems)
Procedure: as §1

[7] = target: T3, ActRIIa Fc fusion (R&D Systems); assay: as above
Procedure: as §1

[8] = target: T4, BMPRIb Fc fusion (R&D Systems); assay: as above
Procedure: as §1

[9] = target: T5, BMPRII Fc fusion (R&D Systems); assay: as above
Procedure: as §1

[10] = target: T6, BMPRII receptor-Fc fusion (UniProt Q13873 27-151, limits assumed); assay: ELISA-like, fixed volume of conditioned media, receptor-Fc
T6 construct: BMP receptor-Fc fusion, detected with anti-human IgG-HRP
T6 sequence (looked up): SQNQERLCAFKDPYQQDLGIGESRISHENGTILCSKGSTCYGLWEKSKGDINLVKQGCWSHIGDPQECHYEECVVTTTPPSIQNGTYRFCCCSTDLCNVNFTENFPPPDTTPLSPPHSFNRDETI

[11] = target: T7, BMPRIa receptor-Fc fusion (UniProt P36894 24-152, limits assumed); assay: as above
T7 construct: BMP receptor-Fc fusion; also called ALK-3
T7 sequence (P36894 24-152 limits assumed): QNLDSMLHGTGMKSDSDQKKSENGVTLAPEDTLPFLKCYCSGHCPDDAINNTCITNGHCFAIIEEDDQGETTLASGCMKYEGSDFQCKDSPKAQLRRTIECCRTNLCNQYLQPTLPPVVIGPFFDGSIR

[12] = target: T8, ActRIIa receptor-Fc fusion (UniProt P27037 20-134, limits assumed); assay: as above
T8 construct: BMP receptor-Fc fusion, detected with anti-human IgG-HRP
T8 sequence (P27037 20-134 limits assumed): as the sequence (P27037 20-134 limits assumed) above

[13] = target: T9, BMPRIb receptor-Fc fusion (UniProt O00238 14-126); assay: as above
T9 construct: BMP receptor-Fc fusion, detected with anti-human IgG-HRP; also called ALK-6
T9 sequence (looked up): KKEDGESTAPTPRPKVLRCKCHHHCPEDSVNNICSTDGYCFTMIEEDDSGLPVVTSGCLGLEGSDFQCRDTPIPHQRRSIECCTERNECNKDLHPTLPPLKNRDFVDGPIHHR

B1: BMP-7 variant 504 (Y65N/S120D) (ligand)
chain: STGGKQRSQNRSKTPKNQEALRMASVAENSSSDQRQACKKHELYVSFRDLGWQDWIIAPEGYAANYCEGECAFPLNSYMNATNHAIVQTLVHFINPETVPKPCCAPTQLNAISVLYFDDDSNVILKKYRNMVVRACGCH
notes: Purified, unlabeled variant; also called v504
B1 showed an EC50 [1] of 0.00821 µg/mL.

B2: wild type human BMP-7 (R&D Systems) (ligand)
chain: STGGKQRSQNRSKTPKNQEALRMASVAENSSSDQRQACKKHELYVSFRDLGWQDWIIAPEGYAAYYCEGECAFPLNSYMNATNHAIVQTLVHFINPETVPKPCCAPTQLNAISVLYFDDSSNVILKKYRNMVVRACGCH
notes: Bought recombinant protein; It describes BMPs as dimers; also called wt; recombinant human BMP-7
B2 was tested, and the EC50 [2] was 2.85 µg/mL, the EC50 [3] was 0.107 µg/mL and the EC50 [4] was 0.0499 µg/mL. The EC50 [5] was 0.23 µg/mL.

B3: recombinant human BMP-7 (R&D Systems) (ligand)
chain: STGGKQRSQNRSKTPKNQEALRMASVAENSSSDQRQACKKHELYVSFRDLGWQDWIIAPEGYAAYYCEGECAFPLNSYMNATNHAIVQTLVHFINPETVPKPCCAPTQLNAISVLYFDDSSNVILKKYRNMVVRACGCH
notes: Bought protein; also called wild type human BMP-7 (R&D Systems); wt
B3 was tested, and the EC50 [1] was 0.00112 µg/mL.

B4: BMP-7 variant 565 (Y65N/F93T/R129D) (ligand)
chain: STGGKQRSQNRSKTPKNQEALRMASVAENSSSDQRQACKKHELYVSFRDLGWQDWIIAPEGYAANYCEGECAFPLNSYMNATNHAIVQTLVHTINPETVPKPCCAPTQLNAISVLYFDDSSNVILKKYDNMVVRACGCH
notes: Expressed from the full-length Image clone and processed to the mature dimer; Purified from conditioned media on SP-sepharose; also called v565
Binder B4 has an EC50 [2] of 0.392 µg/mL, an EC50 [3] of 0.0424 µg/mL and an EC50 [4] of 0.0224 µg/mL. For the same binder, the EC50 [5] was 0.409 µg/mL, the “Fold change vs. wt” value [6] was 0.137 fold and the “Fold change vs. wt” value [7] was 0.397 fold. The “Fold change vs. wt” value [8] was 0.448 fold and the “Fold change vs. wt” value [9] was 1.78 fold.

B5: BMP-7 variant 526 (K39S/S120D/R134E) (ligand)
chain: STGGKQRSQNRSKTPKNQEALRMASVAENSSSDQRQACSKHELYVSFRDLGWQDWIIAPEGYAAYYCEGECAFPLNSYMNATNHAIVQTLVHFINPETVPKPCCAPTQLNAISVLYFDDDSNVILKKYRNMVVEACGCH
notes: Expressed from the full-length Image clone and processed to the mature dimer; Purified from conditioned media on SP-sepharose; also called v526
Work on B5 yielded an EC50 [2] of 16.7 µg/mL, an EC50 [3] of 0.0445 µg/mL and an EC50 [4] of 0.0363 µg/mL. For the same binder, the EC50 [5] was 0.139 µg/mL, the “Fold change vs. wt” value [6] was 5.83 fold and the “Fold change vs. wt” value [7] was 0.416 fold. The “Fold change vs. wt” value [8] was 0.727 fold and the “Fold change vs. wt” value [9] was 0.607 fold.

B6: BMP-7 variant S77P (ligand)
chain: STGGKQRSQNRSKTPKNQEALRMASVAENSSSDQRQACKKHELYVSFRDLGWQDWIIAPEGYAAYYCEGECAFPLNPYMNATNHAIVQTLVHFINPETVPKPCCAPTQLNAISVLYFDDSSNVILKKYRNMVVRACGCH
B6 was tested, and the “BMPRII binding relative to wild type” value [10] was 0.85 relative to wt = 1.0, the “BMPRIa binding relative to wild type” value [11] was 0.68 relative to wt = 1.0 and the “ActRIIa binding relative to wild type” value [12] was 0.92 relative to wt = 1.0. The “BMPRIb binding relative to wild type” value [13] was 0.95 relative to wt = 1.0.
